Positions count from the first letter of the chain named.
T1: cynomolgus monkey IL-2Rβ/CD122 subunit (cynomolgus monkey, UniProt Q38J85 27-239, limits assumed)
T1 construct: also called Cyno IL-2R subunit
T1 sequence (looked up): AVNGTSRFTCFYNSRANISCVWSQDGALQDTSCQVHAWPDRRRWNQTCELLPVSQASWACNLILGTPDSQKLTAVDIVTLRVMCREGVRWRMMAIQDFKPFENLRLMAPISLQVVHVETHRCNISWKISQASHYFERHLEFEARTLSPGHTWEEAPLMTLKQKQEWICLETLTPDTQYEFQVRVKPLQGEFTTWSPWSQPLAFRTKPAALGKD

T2: human interleukin-2 receptor β-chain (IL-2Rβ; CD122), recombinant protein (human, UniProt P14784 27-240)
T2 construct: also called human IL-2R subunit CD122
T2 sequence: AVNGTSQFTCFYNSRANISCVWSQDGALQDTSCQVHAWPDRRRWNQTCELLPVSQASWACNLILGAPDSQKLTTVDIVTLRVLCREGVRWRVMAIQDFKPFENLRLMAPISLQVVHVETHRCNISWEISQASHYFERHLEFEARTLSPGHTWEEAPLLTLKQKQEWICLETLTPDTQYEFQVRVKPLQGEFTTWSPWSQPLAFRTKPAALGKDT

T3: human interleukin-2 receptor α-chain (IL-2Rα; CD25), recombinant protein (human, UniProt P01589 22-240, limits assumed)
T3 construct: also called huIL2R-a; hIL-2RA
T3 sequence: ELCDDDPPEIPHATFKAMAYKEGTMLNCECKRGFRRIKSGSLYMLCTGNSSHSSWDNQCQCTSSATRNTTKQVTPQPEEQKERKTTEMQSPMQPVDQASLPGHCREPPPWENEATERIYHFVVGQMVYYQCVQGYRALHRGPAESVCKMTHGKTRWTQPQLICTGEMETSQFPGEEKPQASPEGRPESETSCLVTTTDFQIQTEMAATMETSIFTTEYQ

T4: cynomolgus monkey IL-2Rα/CD25 subunit (cynomolgus monkey, UniProt H6WS54 22-213)
T4 construct: also called Cyno IL-2R subunit
T4 sequence: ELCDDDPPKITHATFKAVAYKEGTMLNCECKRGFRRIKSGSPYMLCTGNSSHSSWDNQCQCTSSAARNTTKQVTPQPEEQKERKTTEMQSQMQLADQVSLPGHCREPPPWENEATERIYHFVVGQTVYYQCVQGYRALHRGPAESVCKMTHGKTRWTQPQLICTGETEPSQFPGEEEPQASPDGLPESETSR

B1: 184-MP02E11 VHH-hFc, monospecific bivalent (Fc fusion)
chain: QVQLQESGGGLVQAGGSLRLSCAASGRTFSNYVMAWFRQAPGKEREFVGAITQTGRGTFYADSVEGRFTISRINDKNTVYLQMNSLKPEDTAVYYCSAPRSGRAGTRNQMDYEYWGQGTQVTVSS
notes: IgG1 Fc LALA-PG; not shown: human IgG1 CH2 and CH3 domains (Fc)
B2: 166-MP02H08 VHH-hFc, monospecific bivalent (Fc fusion)
chain: EVQLVESGGGLVQAGDSLRISCAASGRIFSNYAMGWFRQAPGKETEFVAGITHLTSTTHYADSVKGRFTISRDNAKNTMHLQMNNLKPEDTALYYCAADRNIKITADWSYWGQGTQVTVAS
notes: as for B1
B3: 297-MP06A08 VHH-hFc, monospecific bivalent (Fc fusion)
chain: EVQLVESGGGLVQAGESLRLSCAASGQYFSTYSMAWFRRTPGKEREFVTIISESGGIKEYVDSVKGRFTVSRDNAKNTVYLQMNSLKPEDTAVYYCAAARDWFARNEYQYDYWGQGTQVTVSS
notes: as for B1
B4: 115-MP02E01 VHH-hFc, monospecific bivalent (Fc fusion)
chain: EVQLVESGGGLVQIGGSLRLSCAASGRTFSSITMAYFRQVPGKEREWVAGINFSGTRTFYADSVKGRFLISRDDAKSTMYLQMNSLKPEDTAVYYCAASPRGFYGPGNALYDYWGQGTQVTVSS
notes: as for B1
B5: 161-MP02C08 VHH-hFc, monospecific bivalent (Fc fusion)
chain: EVQLVESGGGLVQAGGSLRLSCAASGSTFSRQPMYWFRQAPGKEREFVAAITWSGRGTLYADSVEGRFTISRDNAKNTVYLQMNSLRPDDTAAYYCAAGPYGDAAYRHGRIDSWGQGTQVTVSS
notes: as for B1
B6: 22-MP03F12 VHH-hFc, monospecific bivalent (Fc fusion)
chain: EVQLVESGGGLVQAGGSLRLSCAASGSIFSINAMAWFRQVPGMERELVAAISRDGGASVYRDSVKGRFTISRDNSKNTVYLQMNTLKPEDTAIYVCAATRAIGWTARWITTDFDFWGQGTQVTVSS
notes: as for B1
B7: 16-MP02B08 VHH-hFc, monospecific bivalent (Fc fusion)
chain: EVQLVESGGGLVQAGGSLRLSCAASGRAIENYPVGWFRQAPGKEREFVAAITWISGSTLYADSVKGRFTISRDNAKNTVYLQMSSLKPEDTALYYCAAALKTITRGQNDYSYWGQGTQVTVSS
notes: as for B1
B8: 15-MP02E06 VHH-hFc, monospecific bivalent (Fc fusion)
chain: QVQLVESGGGSVQPGGSLRLSCAASGFTFSNYAMSWVRQAPGKGLEWVASITGFGRGTDYADSVKGRFTISRDNAEDTLYLQMNSLKPEDTAVYYCAKYSSSTYYPPTPARGRDYRGQGTQVTVSS
notes: IgG1 Fc LALA-PG; also called anti-IL-2Rβ Ab 15; not shown: human IgG1 CH2 and CH3 domains (Fc)
B9: 19-MP03F08 VHH-hFc, monospecific bivalent (Fc fusion)
chain: EVQLVESGGGLVQTGGSLRLSCAASGGTFSRDAMAWFRQVPGKEREFVALISWSGATTNYADSVKGRFAISRDNGKNTVYLQMNRLKPADTAIYYCAADRRPMGSRSYFEPTEYDDWGQGTQVTVSS
notes: as for B1
B10: 23-MP06F03 VHH-hFc, monospecific bivalent (Fc fusion)
chain: QVQLVESGGGLVQAGGSLRLSCAVSGDVFVRYTMAWFRQAPGKEREFVASVTDSGRTTDYVHSVKGRFTVSRDNAKNTVYLQMNNLKPEDTAVYYCAANTDYFQIKSLDANTWGQGTQVTVSS
notes: as for B1
B11: 26-MP06A07 VHH-hFc, monospecific bivalent (Fc fusion)
chain: B10 chain with V5Q, V24A, D59E, H62D, V79A, V93I, K106R, A110L
notes: as for B1
B12: 18-MP03C03 VHH-hFc, monospecific bivalent (Fc fusion)
chain: QVQLVESGGGLVQPGGSLRLSCAISGGTLDSYGIGWVRQAPGKQREGVSCMSRSDDRTYYADSVKGRFTISKDSAKNTVYLQMTSLKPEDTAVYYCAAVDAYGCSLVQPTTYDFWGLGTQVTVSS
notes: as for B1
B13: 168-MP02B09 VHH-hFc, monospecific bivalent (Fc fusion)
chain: EVQLVESGGGLVQAGGSLRLSCAASGRTFSTTEMGWFRQAPGKEREFVAAITWTGRGTMYAESVEGRFTISRENAKNMVYLQMNSLKPEDTAIYYCAAARRGRAAVRSEGGYDFWGQGTQVTVSS
notes: as for B1
B14: 17-MP02C09 VHH-hFc, monospecific bivalent (Fc fusion)
chain: QVQLQESGGGLVQAGGSLRLSCVASGSVSSINGMAWYRQGADNQRVLVAAISRVGNTAYGDSVKGRFTISRQNARNTVYLQMNSLKPEDTAVYYCNADSWGGDDYWGQGTQVTVSS
notes: IgG1 Fc LALA-PG; also called anti-IL-2Rβ Ab 17; not shown: human IgG1 CH2 and CH3 domains (Fc)
B15: 24-MP06E05 VHH-hFc, monospecific bivalent (Fc fusion)
chain: QVQLVESGGELVQGGASLRLSCAASGRTFSNANMAWFRQAPEKEREFVALITWSSGSTLYADSVKGRFTISRDNARKMVYLQMNSLKPEDTAVYYCAADGPPYSGTYYRYDTYDYWGQGTQVTVSS
notes: as for B1
B16: 126-MP02A03 VHH-hFc, monospecific bivalent (Fc fusion)
chain: QVQLVESGGGLVQPGGSLRLSCAASGFTFSNYAMSWVRQAPGKGLEWVSSITGAGRGTYYAESVKGRFTISRDNDKNTLYLQMNSLKPEDTAVYYCAKYDSSTFYPPTPARGIADRGQGTRVTVSS
notes: as for B1
B17: 193-MP02F12 VHH-hFc, monospecific bivalent (Fc fusion)
chain: QLQLVESGGGLVQTGTSLRLSCAASGHTSRINAMGWFRQFPGKEREFVAAISRNGGSTVYVDSVKGRFTISRDNAKSTVYLQMNSLKPEDTAVYYCTATDAVGWTTRWMTADFGFWGQGTQVTVSS
notes: as for B1
B18: 20-MP03F10 VHH-hFc, monospecific bivalent (Fc fusion)
chain: EVQLVESGGGLVQAGGSLRLSCAASGRDFSSYAMGWFRQAPGKEREFVVAITWTKRSTDFPDSVKGRFTISRDNAKNTVYLDMNSLKPEDTAVYYCASARGLPVTPLGDIIYWGEGTLVTVSS
notes: as for B1
B19: 189-MP02B12 VHH-hFc, monospecific bivalent (Fc fusion)
chain: QVQLVESGGGLVQAGGSLRLSCAASGRADSNAIMAWFRQAPGKEREFIVAVTYSGMPTYQDDSVQGRFTASRDNAKNTVYLQMNSLKPEDTAVYYCAARMYSASTYYGDYDYWGQGTQVTVSS
notes: as for B1
B20: 92-MP05C07 VHH-hFc, monospecific bivalent (Fc fusion)
chain: QVQLVESGGGSVQAGGSLRLSCEASGRTLFSSYGMGWFRQAPGKEREFVGAISRFGTYTSYADPVKDRFTISRDNAKSTVYLQMNNTKPEDTAVYYCAAYTYSGSFYSTVKTHHDEYRYWGQGTQVTVSS
notes: as for B1
B21: 1-MP01H01 VHH-hFc, monospecific bivalent (Fc fusion)
chain: EVQLVESGGGLVQAGGSLRLSCAASGRTFRTHNMGWFRRAPGKEREFVAAISWNVDNTLYADSVKGRFTISRDNGRNMVYLQMNSLKPEDTAVYYCAADNIPLSSDVAATATEYDYWGQGTQVTVSS
notes: as for B1

Biological target: T1, cynomolgus monkey IL-2Rβ/CD122 subunit
Experiment: ELISA, bivalent VHH-hFc
Procedure: (§1) Monospecific monovalent and bivalent IL-2Rα-, IL-2Rβ- and IL-2Rγ-specific antibodies that were selected on human IL-2R subunits, were evaluated for their cross-reactivity in an ELISA. Human and cynomolgus monkey receptor subunits (Acrobiosystems, KactusBiosystems) were coated at 1 μg/mL in PBS (pH 7.4) in a Maxisorp plate (Nunc) and incubated overnight at 4° C. The plates were further washed with PBS-Tween pH 7.4 and incubated with 1% cascin/PBS-Tween blocking solution for 1 hour shaking at 400 rpm. Subsequently, the plate was washed three times with PBS-Tween pH 7.4, after which the test antibodies diluted in 0.1% casein/PBS-Tween were added to the plate and incubated for 1 hour. The plate was again washed three times, after which goat anti-human IgG Fc (HRP) detection antibody (abcam) was added to the plate and incubated for 30 min. The colouring reaction was performed with TMB (Sigma-Aldrich) and stopped with 0.5N H₂SO₄.
(§2) Absorbance was measured at 450 nm with the reference wavelength of 620 nm using spectrophotometer. Final analysis and graphic output were performed with GraphPad Prism version 8 (GraphPad Software). The dose-response binding curves were fit to a nonlinear regression model (log (agonist) vs. response with a variable slope (four parameters)).

EC50 | binding result | Binder
0.074 nM | – | B1
0.105 nM | – | B2
0.09 nM | – | B3
0.06 nM | – | B4
0.157 nM | – | B5
0.122 nM | – | B6
0.23 nM | – | B7
0.895 nM | – | B8
0.603 nM | – | B9
0.157 nM | – | B10
0.138 nM | – | B11
0.3 nM | – | B12
0.127 nM | – | B13
0.184 nM | – | B14
0.265 nM | – | B15
0.065 nM | – | B16
0.099 nM | – | B17
– | no binding | B18
0.066 nM | – | B19

Biological target: T2, human interleukin-2 receptor β-chain …
Experiment: ELISA, bivalent VHH-hFc
Procedure: as §1, §2

EC50 | Binder
0.059 nM | B1
0.085 nM | B2
0.079 nM | B3
0.06 nM | B4
0.084 nM | B5
0.124 nM | B6
0.245 nM | B7
0.209 nM | B8
0.794 nM | B9
0.125 nM | B10
0.117 nM | B11
0.294 nM | B12
0.053 nM | B13
0.124 nM | B14
0.191 nM | B15
0.09 nM | B16
0.087 nM | B17
0.218 nM | B18
0.053 nM | B19

Biological target: T3, human interleukin-2 receptor α-chain …
Experiment: ELISA, bivalent VHH-hFc
Procedure: as §1, §2

EC50 | Binder
0.047 nM | B20
0.052 nM | B21

Biological target: T4, cynomolgus monkey IL-2Rα/CD25 subunit
Experiment: ELISA, bivalent VHH-hFc
Procedure: as §1, §2

binding result | EC50 | Binder
no binding | – | B20
– | 0.061 nM | B21

Biological target: T1, cynomolgus monkey IL-2Rβ/CD122 subunit
Experiment: ELISA, bivalent; EC50 cyno vs human subunit
Procedure: as §1, §2

Fold change | Binder
1.3 fold | B1
1.2 fold | B2
1.2 fold | B3
1 fold | B4
1.9 fold | B5
1 fold | B6
0.9 fold | B7
4.3 fold | B8
0.8 fold | B9
1.3 fold | B10
1.2 fold | B11
1 fold | B12
2.4 fold | B13
1.5 fold | B14
1.4 fold | B15
0.7 fold | B16
1.1 fold | B17
1.3 fold | B19

Biological target: T4, cynomolgus monkey IL-2Rα/CD25 subunit
Experiment: ELISA, bivalent; EC50 cyno vs human subunit
Procedure: as §1, §2

Fold change | Binder
1.2 fold | B21
